The target in the test is T1, monkey serum albumin (monkey).
T1 construct: also called Monkey SA
Kind of test: SPR (BioRad ProteOn XPR36), albumin amine-coupled to GLC chip, analyte from 5 nM in 3-fold dilutions, 25 C. The method, then: All studies were conducted on a BioRad ProteOn XPR36 system using a GLC sensor chip at 25 degrees C. For amine coupling the GLC chip was activated for 5 minutes using a 1:1 mixture of sulfo-NHS/EDC diluted 30-fold from the initial stock in water as shown below. Each albumin sample was diluted to 25 ug/ml in 10 mM Na Acetate pH 5.0 and injected for 5 minutes over separate sensor surfaces. Each surface was then blocked with 1 M ethanolamine pH 8.5. Each albumin was coupled at a density of 2000-5000 in resonance units.
The binding of an engineered polypeptide was tested using 5 nM as the highest concentration in a three-fold dilution series. The running buffer contained 10 mM HEPES pH 7.4, 150 mM NaCl, 3 mM EDTA and 0.005% tween-20. All samples were tested using a 3-fold dilution series. Each concentration series was tested in duplicate. The dissociation phase for the highest concentration […] was monitored for 3 hours.

T1 sequence (Q28522 17-600): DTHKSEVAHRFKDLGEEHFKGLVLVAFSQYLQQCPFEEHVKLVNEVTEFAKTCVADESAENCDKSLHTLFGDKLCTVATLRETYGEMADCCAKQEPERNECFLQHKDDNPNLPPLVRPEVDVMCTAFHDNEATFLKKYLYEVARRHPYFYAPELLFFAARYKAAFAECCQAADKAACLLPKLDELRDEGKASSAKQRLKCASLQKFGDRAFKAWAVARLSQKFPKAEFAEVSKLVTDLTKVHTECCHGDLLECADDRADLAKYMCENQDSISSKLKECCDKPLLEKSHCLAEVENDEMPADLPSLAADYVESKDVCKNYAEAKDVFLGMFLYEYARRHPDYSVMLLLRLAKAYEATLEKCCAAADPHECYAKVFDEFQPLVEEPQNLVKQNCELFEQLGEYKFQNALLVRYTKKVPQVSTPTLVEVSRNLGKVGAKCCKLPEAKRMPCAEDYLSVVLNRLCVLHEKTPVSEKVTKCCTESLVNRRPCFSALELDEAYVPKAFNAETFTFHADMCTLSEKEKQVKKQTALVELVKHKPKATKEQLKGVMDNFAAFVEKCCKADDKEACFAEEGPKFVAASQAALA

B1: PEP07986-neutral linker-A500 (Compound 2) (other)
chain: MGSLAEAKEAANAELDSYGVSDFYKRLIDKAKTVEGVEALKDAILAALPTGGGGSGGGSGGGSGGGSASVPIQKVQDDTKTLIKTIVTRINDISHTQSVSSKQKVTGLEFIPGLHPILTLSKMDQTLAVYQQILTSMPSRNVIQISNDLENLRDLLHVLAFSKSCHLPQASGLETLESLGGVLEASGYSTEVVALSRLQGSLQDMLQQLDLSPGC
notes: also called Cmpd 2; PEP07986-Neutral-A500
As usually defined, the Kd is the constant that tells how readily two partners part at equilibrium. With B1, the Kd is 0.405 nM.

B2: PEP07986-negative linker-A500 (Compound 12) (other)
chain: MGSLAEAKEAANAELDSYGVSDFYKRLIDKAKTVEGVEALKDAILAALPTGGEGGEGGEGGEGGEGGEASVPIQKVQDDTKTLIKTIVTRINDISHTQSVSSKQKVTGLEFIPGLHPILTLSKMDQTLAVYQQILTSMPSRNVIQISNDLENLRDLLHVLAFSKSCHLPQASGLETLESLGGVLEASGYSTEVVALSRLQGSLQDMLQQLDLSPGC
notes: also called Cmpd 12; PEP07986-Negative-A500
Consider B2, for which binding was characterised by a dissociation constant (Kd) of 0.4 nM.

(Values after US20160207974A1 (published 2016).)
